Assay results published in doi:10.64898/2025.12.11.693717.

Experiments:
[1] = biological target: DCC I372R mutant, overexpressed in Cos7 cells (UniProt P70211); test: immunostaining of cells or tissue
[2] = biological target: Deleted in Colorectal Cancer (DCC), wild type, overexpressed in Cos7 cells (UniProt P70211); test: immunostaining of cells or tissue

Draxin mean fluorescence on DCC+ cells [1]: 0.72 | Draxin mean fluorescence on DCC+ cells [2]: 0.95
Substance: recombinant Draxin (ligand)
